In the supplement of paper PMC6757056:
± gives the standard deviation of the averaged measurements.

B1: library; a variant is named by its letters at N, in order (parent)
chain: GCUGUCACCGGUGUAUUACCCUAGUGGUCGACCGGUCUGAUGAGUCUNNNNNNAGACGAAACAGC

Experiments:
hypoxanthine [1] = variants of: B1; assay: normalized RNA/DNA level with ligand (relative to sTRSVctl = 100) (log10 (% of sTRSVctl)); ligand: hypoxanthine (xanthine aptamer); higher = less ribozyme self-cleavage, higher mRNA level; conditions: ligand concentration (+) RNA-Seq: 5 mM, HEK293T, reporter: mCherry (pCS4076), ligand present: yes
In short: (§1)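 Library plasmids encoding reporter-linked ribozyme switches (mCherry, or eGFP for some folinic acid experiments) were transfected into HEK293T at 4 µg per 6-well well. Ligand, when used, was added 1 h before transfection. Total RNA was extracted with EDTA 72 h later, then reverse-transcribed, amplified, barcoded and sequenced. RNA level was RNA reads over DNA reads, divided by a spiked-in non-cleaving control (or the top 25 sequences), ×100, log10; only sequences with ≥100 DNA reads were kept.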

hypoxanthine [2] = variants of: B1; assay: normalized RNA/DNA level without ligand (relative to sTRSVctl = 100) (log10 (% of sTRSVctl)); ligand: hypoxanthine (xanthine aptamer); higher = less ribozyme self-cleavage, higher mRNA level; conditions: HEK293T, reporter: mCherry (pCS4076), ligand present: no
In short: as §1

Variant | normalized RNA/DNA level with ligand (log10) (hypoxanthine [1]) | normalized RNA/DNA level without ligand (log10) (hypoxanthine [2])
UACUAU | 1.89 ± 0.027 | 1.83 ± 0.05
UACUAC | 1.95 ± 0.056 | 1.926 ± 0.0063
UACAUC | 1.979 ± 0.018 | 2 ± 0.03
UACAUA | 1.93 ± 0.038 | 1.86 ± 0.024
UACAUU | 1.941 ± 0.0099 | 1.855 ± 0.016
UAAUAC | 1.929 ± 0.013 | 1.79 ± 0.026
GACAUU | 1.92 ± 0.057 | 1.856 ± 0.0056
GACAUC | 1.97 ± 0.081 | 1.93 ± 0.077
UAACUC | 2.009 ± 0.013 | 1.97 ± 0.04
UAACUU | 1.97 ± 0.0029 | 1.899 ± 0.0086
GAACCU | 1.95 ± 0.043 | 1.92 ± 0.026
GAACCC | 1.945 ± 0.0058 | 1.88 ± 0.026
GAGAGU | 1.87 ± 0.091 | 1.49 ± 0.029
GAAUCU | 1.9 ± 0.069 | 1.9 ± 0.044
GAAUCC | 1.93 ± 0.067 | 1.898 ± 0.008
CAGACU | 1.92 ± 0.043 | 1.92 ± 0.022
CAGACG | 1.98 ± 0.035 | 1.8 ± 0.081
CAGACC | 2.04 ± 0.037 | 1.96 ± 0.045
GAAGGU | 1.91 ± 0.068 | 1.73 ± 0.06
GAAGGC | 1.889 ± 0.016 | 1.52 ± 0.044
CAAUGC | 1.95 ± 0.047 | 1.89 ± 0.029
CAAUGA | 1.92 ± 0.038 | 1.82 ± 0.051
AAAGUC | 1.98 ± 0.07 | 1.919 ± 0.0031

Variant | normalized RNA/DNA level with ligand (log10) (hypoxanthine [1]) | normalized RNA/DNA level without ligand (log10) (hypoxanthine [2])
UAGACU | 1.925 ± 0.0021 | 1.83 ± 0.02
UAGACA | 1.9 ± 0.038 | 1.857 ± 0.0097
UAGACG | 1.8696 ± 0.00011 | 1.642 ± 0.013
UAGACC | 1.976 ± 0.016 | 1.92 ± 0.0073
CAAUCA | 1.91 ± 0.069 | 1.77 ± 0.0087
CAAUCG | 1.98 ± 0.083 | 1.89 ± 0.019
CAAUCU | 2.01 ± 0.059 | 1.85 ± 0.042
AAACUA | 1.89 ± 0.043 | 1.7704 ± 0.0017
AAACUC | 1.95 ± 0.035 | 1.95 ± 0.021
UAAUGU | 1.89 ± 0.045 | 1.599 ± 0.0059
UAAUGA | 1.91 ± 0.024 | 1.653 ± 0.0099
UAAUGC | 1.93 ± 0.023 | 1.823 ± 0.0029
CAAGGG | 1.72 ± 0.036 | 1.28 ± 0.043
CAAGGA | 1.912 ± 0.012 | 1.79 ± 0.044
GAAGAU | 1.94 ± 0.035 | 1.8 ± 0.075
CACCGU | 1.93 ± 0.064 | 1.892 ± 0.011
CACCGC | 2.015 ± 0.0091 | 1.91 ± 0.042
CACCGG | 1.875 ± 0.0026 | 1.58 ± 0.13
GACUCU | 1.94 ± 0.092 | 1.93 ± 0.029
GACUCC | 1.989 ± 0.019 | 1.96 ± 0.04
GACUCA | 1.97 ± 0.029 | 1.892 ± 0.0056
AAGAGC | 1.9 ± 0.046 | 1.532 ± 0.009
AAAUAC | 1.89 ± 0.026 | 1.77 ± 0.048

Variant | normalized RNA/DNA level with ligand (log10) (hypoxanthine [1]) | normalized RNA/DNA level without ligand (log10) (hypoxanthine [2])
UAACAU | 1.919 ± 0.013 | 1.78 ± 0.024
UAGAGC | 1.908 ± 0.017 | 1.706 ± 0.0082
AACAGC | 1.94 ± 0.036 | 1.83 ± 0.05
GAAGUA | 1.88 ± 0.05 | 1.741 ± 0.0072
GAAGUC | 1.97 ± 0.022 | 1.87 ± 0.035
GACCUC | 1.93 ± 0.031 | 1.909 ± 0.0094
GACCUA | 1.935 ± 0.01 | 1.85 ± 0.033
GACCUU | 1.95 ± 0.033 | 1.885 ± 0.015
CACUGA | 1.95 ± 0.049 | 1.83 ± 0.022
CACUGC | 1.96 ± 0.037 | 1.909 ± 0.0035
CACUGU | 2 ± 0.021 | 1.97 ± 0.022
AACAAA | 1.91 ± 0.035 | 1.785 ± 0.017
AACAAC | 1.899 ± 0.015 | 1.8557 ± 0.001
AACCCU | 1.932 ± 0.0028 | 1.8887 ± 0.0015
AACCCC | 1.97 ± 0.082 | 1.87 ± 0.043
GAAUUU | 1.964 ± 0.015 | 1.89 ± 0.022
AAGACU | 1.95 ± 0.064 | 1.856 ± 0.0071
AAAGCC | 1.94 ± 0.04 | 1.817 ± 0.0038
CAAGCU | 1.981 ± 0.0081 | 1.892 ± 0.003
CAAGCG | 1.94 ± 0.037 | 1.82 ± 0.03
AACGUU | 1.91 ± 0.0075 | 1.829 ± 0.017
UACCUC | 1.99 ± 0.082 | 1.93 ± 0.067
UACCUU | 1.927 ± 0.017 | 1.89 ± 0.054

Variant | normalized RNA/DNA level with ligand (log10) (hypoxanthine [1]) | normalized RNA/DNA level without ligand (log10) (hypoxanthine [2])
UACGAC | 1.9194 ± 0.00024 | 1.804 ± 0.0045
UAAGUU | 1.97 ± 0.025 | 1.83 ± 0.02
UAAGUC | 1.932 ± 0.0068 | 1.925 ± 0.016
UAAGUA | 1.89 ± 0.041 | 1.8797 ± 0.00095
AACCAU | 1.873 ± 0.0073 | 1.8 ± 0.04
AACCAA | 1.91 ± 0.037 | 1.78 ± 0.072
UAAGAU | 1.907 ± 0.0056 | 1.72 ± 0.057
CACCCC | 1.96 ± 0.025 | 1.8889 ± 0.0018
CACCCU | 1.96 ± 0.034 | 1.91 ± 0.096
CACCCG | 1.94 ± 0.028 | 1.906 ± 0.01
CACCCA | 1.958 ± 0.016 | 1.83 ± 0.019
UAAGGC | 1.945 ± 0.0051 | 1.839 ± 0.0074
GACUGU | 1.89 ± 0.033 | 1.8123 ± 0.00033
GACUGC | 1.905 ± 0.01 | 1.66 ± 0.052
UACCGC | 1.942 ± 0.0069 | 1.8 ± 0.039
AACCUC | 1.937 ± 0.018 | 1.96 ± 0.027
AACCUU | 1.9 ± 0.054 | 1.895 ± 0.0019
AACCUA | 1.93 ± 0.028 | 1.84 ± 0.047
AACUUC | 1.96 ± 0.023 | 1.96 ± 0.023
CACGCG | 1.9257 ± 1.5e-05 | 1.88 ± 0.029
CACGCC | 1.99 ± 0.047 | 1.839 ± 0.015
CACGCA | 1.92 ± 0.054 | 1.81 ± 0.041
CACGAU | 1.95 ± 0.027 | 1.78 ± 0.043

Variant | normalized RNA/DNA level with ligand (log10) (hypoxanthine [1]) | normalized RNA/DNA level without ligand (log10) (hypoxanthine [2])
CACGAG | 1.9 ± 0.035 | 1.6 ± 0.026
CACGAC | 1.95 ± 0.028 | 1.84 ± 0.0038
GACGUG | 1.83 ± 0.095 | 1.29 ± 0.024
GACGUC | 1.95 ± 0.046 | 1.85 ± 0.019
GACGUA | 1.92 ± 0.033 | 1.773 ± 0.0082
CACUCG | 1.99 ± 0.066 | 1.92 ± 0.062
CACUCA | 1.93 ± 0.024 | 1.89 ± 0.033
CACUCU | 1.963 ± 0.0079 | 1.91 ± 0.026
CACUCC | 1.93 ± 0.021 | 1.92 ± 0.063
GACUUA | 1.88 ± 0.0036 | 1.84 ± 0.023
GACUUU | 1.923 ± 0.017 | 1.91 ± 0.056
GACUUC | 1.9476 ± 0.0019 | 1.98 ± 0.098
CACUUG | 1.95 ± 0.1 | 1.88 ± 0.043
CACUUA | 1.87 ± 0.057 | 1.779 ± 0.0095
CACAGG | 1.77 ± 0.089 | 1.26 ± 0.06
CACAGA | 1.97 ± 0.05 | 1.847 ± 0.015
CACAGC | 1.9491 ± 1.9e-05 | 1.87 ± 0.044
CACAGU | 1.926 ± 0.0077 | 1.844 ± 0.0086
AAGAAC | 1.9 ± 0.032 | 1.7418 ± 0.00032
GAACGU | 1.9 ± 0.037 | 1.688 ± 0.014
CACAAA | 1.8939 ± 0.00066 | 1.76 ± 0.023
CACAAU | 1.89 ± 0.053 | 1.78 ± 0.034
CACAAC | 1.93 ± 0.027 | 1.839 ± 0.018
